Experimental data: patent US7208171B2, “Injectable and bioadhesive polymeric hydrogels as well as related methods of enzymatic preparation” (Northwestern University, priority 2002, dated 2007)
Non-standard residues stand in square brackets, D forms with d. No end group written: not given here. Dopa = N[C@@H](Cc1ccc(O)c(O)c1)C(=O)O

What was measured:
[1] = molecular target: T1, guinea pig liver transglutaminase (guinea pig, UniProt P08587 2-690); assay: cell-based or functional assay
T1 sequence (looked up): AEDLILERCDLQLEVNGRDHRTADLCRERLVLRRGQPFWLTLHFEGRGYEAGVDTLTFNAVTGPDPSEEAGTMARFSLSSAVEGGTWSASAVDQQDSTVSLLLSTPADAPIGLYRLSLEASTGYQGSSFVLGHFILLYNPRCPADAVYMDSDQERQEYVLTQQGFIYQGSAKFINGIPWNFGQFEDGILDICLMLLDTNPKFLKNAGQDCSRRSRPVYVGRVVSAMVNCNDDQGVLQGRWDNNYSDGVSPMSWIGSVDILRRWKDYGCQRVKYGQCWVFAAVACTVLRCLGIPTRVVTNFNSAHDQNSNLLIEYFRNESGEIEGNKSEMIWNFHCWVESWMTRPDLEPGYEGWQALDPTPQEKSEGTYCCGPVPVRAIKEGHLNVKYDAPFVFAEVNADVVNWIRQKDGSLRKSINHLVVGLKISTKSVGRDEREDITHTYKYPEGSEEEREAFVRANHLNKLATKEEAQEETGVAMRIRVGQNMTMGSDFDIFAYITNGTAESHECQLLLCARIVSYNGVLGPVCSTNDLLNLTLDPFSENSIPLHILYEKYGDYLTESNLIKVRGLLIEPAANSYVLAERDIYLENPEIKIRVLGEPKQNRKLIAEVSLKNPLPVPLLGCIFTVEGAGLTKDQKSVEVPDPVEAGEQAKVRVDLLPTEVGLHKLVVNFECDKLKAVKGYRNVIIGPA

[2] = molecular target: T2, guinea pig liver transglutaminase (UniProt P08587); assay: Substrate specificity: TGase-catalysed cross-linking of peptide with dansyl labeled substrate, RP-HPLC; type: biochemical; details: peptide concentration 0.05–50 mM, enzyme 0.05 U/ml, reaction time 30 min
T2 construct: Transglutaminase from guinea pig liver, Boc-L-Lys(Boc)-OH, and N-Boc-L-DOPA dicyclohexylammonium salt was purchased from Sigma Chemical Company; purchased Sigma Chemical Company (St. Louis, Mo.); host or cells: guinea pig liver (tissue-derived enzyme)
T2 sequence (P08587 1-690): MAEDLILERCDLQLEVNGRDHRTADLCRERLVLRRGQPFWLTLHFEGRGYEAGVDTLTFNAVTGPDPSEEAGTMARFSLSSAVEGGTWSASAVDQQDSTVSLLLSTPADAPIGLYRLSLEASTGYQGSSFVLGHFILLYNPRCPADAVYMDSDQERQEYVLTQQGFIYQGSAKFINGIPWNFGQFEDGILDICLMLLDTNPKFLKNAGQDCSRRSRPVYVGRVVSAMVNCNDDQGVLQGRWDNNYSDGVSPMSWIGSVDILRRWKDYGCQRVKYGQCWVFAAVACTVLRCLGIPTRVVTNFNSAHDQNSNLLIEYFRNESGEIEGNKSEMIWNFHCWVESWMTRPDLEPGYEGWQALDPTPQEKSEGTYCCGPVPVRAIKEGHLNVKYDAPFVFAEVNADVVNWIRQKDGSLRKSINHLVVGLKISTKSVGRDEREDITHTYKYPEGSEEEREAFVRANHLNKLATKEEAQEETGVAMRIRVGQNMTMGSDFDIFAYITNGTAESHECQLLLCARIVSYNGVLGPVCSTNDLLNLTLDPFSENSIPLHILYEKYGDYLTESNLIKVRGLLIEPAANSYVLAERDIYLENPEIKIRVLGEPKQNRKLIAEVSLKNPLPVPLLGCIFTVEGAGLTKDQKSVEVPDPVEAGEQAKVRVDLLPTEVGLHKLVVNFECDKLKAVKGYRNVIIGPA
Experimental: For acyl donor attention was focused on peptides containing two to about 5 contiguous glutaminyl (e.g., Gln residues), whereas for acyl acceptor a variety of residues were placed near or adjacent Lys. The peptides were assayed as TGase substrates by monitoring the rate of cross-linking reaction with a known dansyl labeled substrate. The use of fluorescently labeled compounds and RP-HPLC analysis with the aid of LC-ESI/MS, allowed for identification of products and comparison of the kinetic constants of the candidate peptides. The specificity (kcat/Km, app) values determined under identical experimental conditions reflect the relative specificity of the enzyme toward the substrates; peptides with higher specificities are better substrates for TGase enzyme, indicating the enzyme-catalyzed cross-linking reaction of that peptide will proceed more rapidly.
Substrate Specificity. […] All reaction products were characterized by LC-ESI/MS (Table 3) and quantitatively analyzed by RP-HPLC. Kinetic constants (Table 4a–b and FIG. 6) were calculated from two methods: fit of the initial rates versus substrate concentrations to the Michaelis-Menten equation using the SigmaPlot® 2000 program with Enzyme Kinetics Module (SPSS Inc., IL); and graphing of the kinetic data using the direct linear plot. […]

NH2-GQLKHLEQQEG-NH2 = molecular target: T3, NH2-GQLKHLEQQEG-NH2
T3 chain: GQLKHLEQQEG

Ac-GQQQLG-NH2 = molecular target: T4, Ac-GQQQLG-NH2
T4 chain: GQQQLG

DOPA-LKG-NH2 = molecular target: T5, DOPA-LKG-NH2
T5 chain: XLKG

Ac-FKG-NH2 = molecular target: T6, Ac-FKG-NH2
T6 chain: FKG

FKG-NH2 = molecular target: T7, FKG-NH2
T7 chain: FKG

LKG-NH2 = molecular target: T8, LKG-NH2
T8 chain: LKG

Ac-LKG-NH2 = molecular target: T9, Ac-LKG-NH2
T9 chain: LKG

Ac-KG-NH2 = molecular target: T10, Ac-KG-NH2
T10 chain: KG

DOPA-FKG-NH2 = molecular target: T11, DOPA-FKG-NH2
T11 chain: XFKG

DOPA-GQQQLG-NH2 = molecular target: T12, DOPA-GQQQLG-NH2
T12 chain: XGQQQLG

DOPA-LKG-NH2 (peptide)
fold increase in specificity against Ac-KG-NH2 [1]: 100 fold
fold increase in specificity against Ac-LKG-NH2 [1]: 2.4 fold

DOPA-Lys-Gly-NH2 ([Dopa]-Lys-Gly-NH2; N-terminus assumed; SMILES NCCCC[C@H](NC(=O)[C@@H](N)Cc1ccc(O)c(O)c1)C(=O)NCC(N)=O) [Peptide 4]
cross-linking product detection [2]: No cross-linking product was detected

DOPA-FKG-NH2 (peptide)
fold increase in specificity against Ac-FKG-NH2 [1]: 2.4 fold
fold increase in specificity against Ac-KG-NH2 [1]: 100 fold

B1: guinea pig liver transglutaminase (protein)
chain: AEDLILERCDLQLEVNGRDHRTADLCRERLVLRRGQPFWLTLHFEGRGYEAGVDTLTFNAVTGPDPSEEAGTMARFSLSSAVEGGTWSASAVDQQDSTVSLLLSTPADAPIGLYRLSLEASTGYQGSSFVLGHFILLYNPRCPADAVYMDSDQERQEYVLTQQGFIYQGSAKFINGIPWNFGQFEDGILDICLMLLDTNPKFLKNAGQDCSRRSRPVYVGRVVSAMVNCNDDQGVLQGRWDNNYSDGVSPMSWIGSVDILRRWKDYGCQRVKYGQCWVFAAVACTVLRCLGIPTRVVTNFNSAHDQNSNLLIEYFRNESGEIEGNKSEMIWNFHCWVESWMTRPDLEPGYEGWQALDPTPQEKSEGTYCCGPVPVRAIKEGHLNVKYDAPFVFAEVNADVVNWIRQKDGSLRKSINHLVVGLKISTKSVGRDEREDITHTYKYPEGSEEEREAFVRANHLNKLATKEEAQEETGVAMRIRVGQNMTMGSDFDIFAYITNGTAESHECQLLLCARIVSYNGVLGPVCSTNDLLNLTLDPFSENSIPLHILYEKYGDYLTESNLIKVRGLLIEPAANSYVLAERDIYLENPEIKIRVLGEPKQNRKLIAEVSLKNPLPVPLLGCIFTVEGAGLTKDQKSVEVPDPVEAGEQAKVRVDLLPTEVGLHKLVVNFECDKLKAVKGYRNVIIGPA
Km, app (NH2-GQLKHLEQQEG-NH2): 593 µM
Vmax, app (NH2-GQLKHLEQQEG-NH2): 12.5 mM/min
kcat (NH2-GQLKHLEQQEG-NH2): 0.468 s⁻¹
kcat/Km, app (NH2-GQLKHLEQQEG-NH2): 788 M⁻¹ s⁻¹
substrate properties (acyl donor) (NH2-GQLKHLEQQEG-NH2): all three designed Gln peptides exhibiting good substrate properties
Km, app (Ac-GQQQLG-NH2): 119 µM
Vmax, app (Ac-GQQQLG-NH2): 1.8 mM/min
kcat (Ac-GQQQLG-NH2): 0.0667 s⁻¹
kcat/Km, app (Ac-GQQQLG-NH2): 568 M⁻¹ s⁻¹
substrate properties (acyl donor) (Ac-GQQQLG-NH2): all three designed Gln peptides exhibiting good substrate properties
Km, app (DOPA-LKG-NH2): 19.5 µM
Vmax, app (DOPA-LKG-NH2): 1.28 µM/min
kcat (DOPA-LKG-NH2): 0.383 s⁻¹
kcat/Km, app (DOPA-LKG-NH2): 19600 M⁻¹ s⁻¹
Km, app (Ac-FKG-NH2): 46.9 µM
Vmax, app (Ac-FKG-NH2): 1.46 µM/min
kcat (Ac-FKG-NH2): 0.438 s⁻¹
kcat/Km, app (Ac-FKG-NH2): 9330 M⁻¹ s⁻¹
Km, app (FKG-NH2): 498 µM
Vmax, app (FKG-NH2): 1.7 µM/min
kcat (FKG-NH2): 0.51 s⁻¹
kcat/Km, app (FKG-NH2): 1030 M⁻¹ s⁻¹
Km, app (LKG-NH2): 609 µM
Vmax, app (LKG-NH2): 1.64 µM/min
kcat (LKG-NH2): 0.492 s⁻¹
kcat/Km, app (LKG-NH2): 807 M⁻¹ s⁻¹
Km, app (Ac-LKG-NH2): 56 µM
Vmax, app (Ac-LKG-NH2): 1.5 µM/min
kcat (Ac-LKG-NH2): 0.45 s⁻¹
kcat/Km, app (Ac-LKG-NH2): 8030 M⁻¹ s⁻¹
Km, app (Ac-KG-NH2): 872 µM
Vmax, app (Ac-KG-NH2): 1.02 µM/min
kcat (Ac-KG-NH2): 0.153 s⁻¹
kcat/Km, app (Ac-KG-NH2): 177 M⁻¹ s⁻¹
Km, app (DOPA-FKG-NH2): 17 µM
Vmax, app (DOPA-FKG-NH2): 1.25 µM/min
kcat (DOPA-FKG-NH2): 0.375 s⁻¹
kcat/Km, app (DOPA-FKG-NH2): 22100 M⁻¹ s⁻¹
Km, app (DOPA-GQQQLG-NH2): 367 µM
Vmax, app (DOPA-GQQQLG-NH2): 7.8 mM/min
kcat (DOPA-GQQQLG-NH2): 0.293 s⁻¹
kcat/Km, app (DOPA-GQQQLG-NH2): 798 M⁻¹ s⁻¹
substrate properties (acyl donor) (DOPA-GQQQLG-NH2): all three designed Gln peptides exhibiting good substrate properties

Leu-Lys-Gly-NH2 [LKG-NH2]
fold increase in specificity against Ac-KG-NH2 [1]: ~5 fold

Phe-Lys-Gly-NH2 [FKG-NH2]
fold increase in specificity against Ac-KG-NH2 [1]: ~5 fold

Ac-Leu-Lys-Gly-NH2 [Ac-LKG-NH2]
fold increase in specificity against LKG-NH2 [1]: ~10 fold

Ac-Phe-Lys-Gly-NH2 [Ac-FKG-NH2]
fold increase in specificity against FKG-NH2 [1]: ~10 fold
